Assay results reported in patent CN107674122A (TIANJIN TIMMUNE BIOTECH INC, dated 2018).

What was measured:
[1] = target: T1, 人血清白蛋白 (human serum albumin) (human, UniProt P02768 25-609); assay: phage ELISA, HSA coated, A650
T1 construct: also called HSA

[2] = target: IgG (coated control antigen); assay: phage ELISA, IgG coated, A650
[3] = target: T1, 人血清白蛋白 (human serum albumin); assay: ELISA, HSA coated, A650
[4] = target: T2, 牛血清白蛋白 (bovine serum albumin) (bovine, UniProt P02769 25-607); assay: ELISA, antigen coated, purified HF11-FC, A650
T2 construct: also called BSA
T2 sequence (P02769 25-607 limits assumed): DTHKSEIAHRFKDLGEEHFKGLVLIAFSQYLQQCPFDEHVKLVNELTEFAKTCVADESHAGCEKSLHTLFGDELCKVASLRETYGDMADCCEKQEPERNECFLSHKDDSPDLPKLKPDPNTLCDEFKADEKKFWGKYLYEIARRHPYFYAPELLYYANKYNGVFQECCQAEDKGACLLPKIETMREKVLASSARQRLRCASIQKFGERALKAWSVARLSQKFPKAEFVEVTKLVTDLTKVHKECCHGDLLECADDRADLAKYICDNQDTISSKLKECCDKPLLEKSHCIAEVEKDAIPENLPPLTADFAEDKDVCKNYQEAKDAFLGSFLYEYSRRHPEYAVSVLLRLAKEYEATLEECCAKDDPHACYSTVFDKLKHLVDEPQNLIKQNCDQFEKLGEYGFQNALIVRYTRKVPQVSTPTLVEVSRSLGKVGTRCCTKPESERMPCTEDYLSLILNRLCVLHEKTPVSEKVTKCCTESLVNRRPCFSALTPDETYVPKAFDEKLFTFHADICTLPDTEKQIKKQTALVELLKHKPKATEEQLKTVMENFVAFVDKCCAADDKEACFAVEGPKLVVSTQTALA

T1 sequence (P02768 25-609 limits assumed): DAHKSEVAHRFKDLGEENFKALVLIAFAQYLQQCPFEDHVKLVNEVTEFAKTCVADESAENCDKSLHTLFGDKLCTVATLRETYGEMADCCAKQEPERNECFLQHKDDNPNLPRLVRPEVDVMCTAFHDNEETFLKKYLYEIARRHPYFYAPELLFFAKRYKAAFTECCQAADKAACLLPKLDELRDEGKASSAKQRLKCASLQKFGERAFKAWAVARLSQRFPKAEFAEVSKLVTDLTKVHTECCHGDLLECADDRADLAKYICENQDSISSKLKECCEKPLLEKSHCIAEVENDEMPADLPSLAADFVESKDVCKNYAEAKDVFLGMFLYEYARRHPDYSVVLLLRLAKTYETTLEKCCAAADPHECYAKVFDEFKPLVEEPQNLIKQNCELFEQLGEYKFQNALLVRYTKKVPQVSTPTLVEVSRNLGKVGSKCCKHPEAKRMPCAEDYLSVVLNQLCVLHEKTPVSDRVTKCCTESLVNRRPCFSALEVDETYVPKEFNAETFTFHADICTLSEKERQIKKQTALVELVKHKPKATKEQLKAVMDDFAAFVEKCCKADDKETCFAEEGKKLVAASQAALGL

| Binder | binding result [1] | A650 [2] [A650] | binding result [3] | binding result [4] |
| --- | --- | --- | --- | --- |
| HB5 单域抗体 (phage-displayed clone, culture supernatant) (VHH, Human heavy-chain single domain antibody on a DP47 framework; Tested in ELISA as phage in culture supernatant, detected with an HRP-labelled anti-phage antibody; not shown: Myc and VSV-G tags and phage GIII protein of display vector pBG3) VHH: QVQLLESGGGLVQPGGSLRLSCAASGVKAINHTMGWVRQAPGKGLEWVSAIRTPDGSTYYADSVKGRFTISRDNSKNTLYLQMNSLRAEDTAVYYCASVGDNAGSSSPPFASWGQGTLVTVSS | binds | ≤ 0.3 |  |  |
| HE9 单域抗体 (phage-displayed clone, culture supernatant) (VHH, Human heavy-chain single domain antibody on a DP47 framework; Tested in ELISA as phage in culture supernatant; not shown: Myc and VSV-G tags and phage GIII protein of display vector pBG3) VHH: QVQLLESGGGLVQPGGSLRLSCAASGFMVTSEIMGWVRQAPGKGLEWVSTIVANNGSTYYADSVKGRFTISRDNSKNTLYLQMNSLRAEDTAVYYCASPPRRTGVDGTESMHFWGQGTLVTVSS | binds | ≤ 0.3 |  |  |
| HF11 单域抗体 (phage-displayed clone, culture supernatant) (VHH, Human heavy-chain single domain antibody on a DP47 framework; Tested in ELISA as phage in culture supernatant; not shown: Myc and VSV-G tags and phage GIII protein of display vector pBG3) VHH: QVQLLESGGGLVQPGGSLRLSCAASGVKISYESMAWVRQAPGKGLEWVSSILMQNGSTYYADSVKGRFTISRDNSKNTLYLQMNSLRAEDTAVYYCATTRVRRPANMKYWGQGTLVTVSS |  | ≤ 0.3 |  |  |
| 融合蛋白HF11-FC (expressed from pcDNA3.1 in 293F cells) (Fc fusion, The secreted protein was purified on Protein A; not shown: human Fc; residues encoded by the BamHI site between the single domain antibody and Fc; no) QVQLLESGGGLVQPGGSLRLSCAASGVKISYESMAWVRQAPGKGLEWVSSILMQNGSTYYADSVKGRFTISRDNSKNTLYLQMNSLRAEDTAVYYCATTRVRRPANMKYWGQGTLVTVSS |  |  | binds | no binding |
